Test results published in US9315793B2, “Enzymes that synthesize zingiberene” (Board of Trustees of Michigan State University, priority 2011, dated 2016).

Test: Substrate specificity of recombinant LA2167-ZIS (GPP, NPP, EE-FPP or 2Z,6Z-FPP), GC-MS of products
Type: biochemical, Solanum habrochaites
Conditions: for substrate giving zingiberene (substrate specificity): no substrate, GPP, NPP, 2Z,6Z-FPP and E,E-FPP compared
Description: The synthetic gene was excised from the pUC57 cloning vector by digestion with BamHI and SalI and ligated into the pHIS8 vector previously linearized by digestion with the same enzymes. Recombinant clones were transformed into E. coli BL21 cells. A 5-mL log-phase culture of E. coli BL21 cells containing the expression vector was induced by addition of IPTG to a final concentration of 0.1 mM. The induced cells were incubated with agitation at 25° C. for 16 h, and then harvested by centrifugation at 10,000 g for 15 min. The cell pellet was resuspended in 1 mL extraction buffer (50 mM HEPES pH 8, 5% glycerol, 100 mM KCl, 7.5 mM MgCl2 containing 1 mM dithiothreitol (DTT)) prior to sonication. Soluble proteins were harvested after centrifugation at 10,000 g for 20 min. The supernatant was used for subsequent enzyme assays. Two micrograms of soluble protein were mixed with 10 μM of substrate (GPP, NPP, EE-FPP or 2Z,6Z-FPP (Echelon Biosciences Inc., Salt Lake City, Utah)) in a 2-mL glass vial. Reactions were allowed to proceed for 30 min at 30° C., and the glass vial headspace was collected with a 65 μm polydimethylsiloxane-divinylbenzene solid-phase microextraction fiber (Supelco, Bellefonte, Pa.). After 5 min of exposure at 42° C., the SPME fiber was retracted and transferred to the GC injector port for desorption at 200° C. onto the GC column for 3 min. The terpenes were separated on a DB5 column (10 m length, inner diameter and 0.25 um). The GC-MS analysis was performed as described previously […] et al. (Plant Physiol 153, 1212-1223 (2010)).

B1: LA2167-ZIS: sesquiterpene (zingiberene) synthase of Solanum habrochaites accession LA2167, SEQ ID NO:2; codon-optimized form lacking chloroplast transit sequence SEQ ID NO:4 (protein)
chain: MIVGYRSTIITLSHPKLGNGKTISSNAIFRRSCRVRCSHSTPSSMNGFEDARDRIRESFGKVELSPSSYDTAWVAMVPSKHSLNEPCFPQCLDWIIENQREDGSWGLNPSHPLLLKDSLSSTLACLLALTKWRVGDEQIKRGLGFIETQSWAIDNKDQISPLGFEIIFPSMIKSAEKLNLNLAINKRDSTIKRALQNEFTRNIEYMSEGFGELCDWKEIIKLHQRQNGSLFDSPATTAAALIYHQHDKKCYEYLNSILQQHKNWVPTMYPTKIHSLLCLVDTLQNLGVHRHFKSEIKKALDEIYRLWQQKNEEIFSNVTHCAMAFRLLRISYYDVSSDELAEFVDEEHFFATSGKYTSHVEILELHKASQLAIDHEKDDILDKINNWTRTFMEQKLLNNGFIDRMSKKEVELALRNFYIISDLAENRRYIKSYEENNFKILKAAYRSPNINNKDLFIFSIRDFELCQAQHQEELQQLKRWFEDCRLDQLGLSEQFISASYLCAIPIVPGPELSDARLVYAKYVMLLTIVDDHFESFASTDECLNIIELVERWDDYASVGYKSERVKVLFSMFYKSIEEIATIAEIKQGRSVKNHLINLWLKVMKLMLMERVEWCSGKTIPRIEEYLYVSSITFGSRLIPLTTQYFIGIKISKDLLESDEIYGLCNFTGIVLRLLNDLQDSKREQKEGSINLVTLLMKSISEEEAIMKMKEILEMKRRELFKMVLVQKKGSQLPQLCKEIFWRTCKWAHFTYSQTDRYRFPEEMENHIDEVFYKPLNH
modifications: Solanum habrochaites
product synthesis with geranyl diphosphate (GPP) as substrate (GPP supplied as substrate): failed to synthesize any products | product synthesis with neryl diphosphate (NPP) as substrate (NPP supplied as substrate): failed to synthesize any products | substrate giving zingiberene (substrate specificity): only observed when 2Z,6Z-farnesyl diphosphate is used as substrate | substrate giving zingiberene (substrate specificity) (listed as zingiberene synthase from accession LA2167): only uses 2Z,6Z-farnesyl diphosphate
